From the RNAGym collection of RNA variant scans (doi:10.7554/elife.80360) come the findings set out here.

B1: CPEB3 Ribozyme (parent)
chain: GGGGGCCACAGCAGAAGCGUUCACGUCGCGGCCCCUGUCAGAUUCUGGUGAAUCUGCGAAUUCUGCUGU

The data set covers variants of B1. As to the kind of experiment: self-cleavage, relative activity (ratio to wild type); higher = more cleavage; co-transcriptional.
Take GGGGGCCACAGCAGAAGCGUUCACGUCGCGGCCCCUGUCCGAUUCUGGUGAAUCUGCGCAUUCUGCUGU [A40C A59C]: the self-cleavage was determined as 0.346.

As for GGGGGCCACAGCAGAAGCGUUCACGUCGCGGCCCCUGUCCGAUUCUGGUGAAUCUACGAAUUCUGCUGU [A40C G56A], the self-cleavage worked out at 0.546.

Regarding GGGGGCCACAGCAGAAGCGUUCACGUCGCGGCCCCUGUCCGAUUCUGGUGAAUCUCCGAAUUCUGCUGU [A40C G56C], the self-cleavage is 0.341.

For GGGGGCCACAGCAGAAGCGUUCACGUCGCGGCCCCUGUCCGAUUCUGGUGAAUCUUCGAAUUCUGCUGU [A40C G56U], the self-cleavage worked out at 0.401.

Consider GGGGGCCACAGCAGAAGCGUUCACGUCGCGGCCCCUGUUAGAUUCUCGUGAAUCUGCGAAUUCUGCUGU [C39U G47C], for which the self-cleavage is 0.957.

Take GGGGGCCACAGCAGAAGCGUUCACGUCGCGGCCCCUGUUAGAUUCUGGUGAAUCUGCGAAUUCUGCUCU [C39U G68C]: the self-cleavage came out at 0.97.

Turning to GGGGGCCACAGCAGAAGCGUUCACGUCGCGGCCCCUGUUAGAUUCUGGUGAAUCUGCGAAUUCUGCUUU [C39U G68U], the self-cleavage was 0.95.

Regarding GGGGGCCACAGCAGAAGCGUUCACGUCGCGGCCCCUGUCCGAUUCUGUUGAAUCUGCGAAUUCUGCUGU [A40C G48U], the self-cleavage turned out to be 0.884.

GGGGGCCACAGCAGAAGCGUUCACGUCGCGGCCCCUGUUAGAUUCUGGUGAAUCUGCGAAUUCUGAUGU [C39U C66A]: the self-cleavage turned out to be 0.541.

Consider GGGGGCCACAGCAGAAGCGUUCACGUCGCGGCCCCUGUUAGAUUCUGGUGAAUCUGCGAAUUCUGUUGU [C39U C66U], for which the self-cleavage was 0.885.

GGGGGCCACAGCAGAAGCGUUCACGUCGCGGCCCCUGUUAGAUUCUGGUGAAGCUGCGAAUUCUGCUGU [C39U U53G]: the self-cleavage was 0.61.

For GGGGGCCACAGCAGAAGCGUUCACGUCGCGGCCCCUGUUAGAUUCUGGUGAACCUGCGAAUUCUGCUGU [C39U U53C], the self-cleavage came to 0.382.

Consider GGGGGCCACAGCAGAAGCGUUCACGUCGCGGCCCCUGUCCGAUUCUAGUGAAUCUGCGAAUUCUGCUGU [A40C G47A], for which the self-cleavage worked out at 0.791.

As for GGGGGCCACAGCAGAAGCGUUCACGUCGCGGCCCCUGUCCGAUUCUUGUGAAUCUGCGAAUUCUGCUGU [A40C G47U], the self-cleavage is 0.905.

For GGGGGCCACAGCAGAAGCGUUCACGUCGCGGCCCCUGUUAGAUUUUGGUGAAUCUGCGAAUUCUGCUGU [C39U C45U], the self-cleavage is 0.862.

With GGGGGCCACAGCAGAAGCGUUCACGUCGCGGCCCCUGUCCGAUUCUGGUGAAUCUGCGAAUUUUGCUGU [A40C C63U], the self-cleavage amounted to 0.388.

Consider GGGGGCCACAGCAGAAGCGUUCACGUCGCGGCCCCUGUCCGAUUCUGGUGAAUCUGCGAAUUGUGCUGU [A40C C63G], for which the self-cleavage came to 0.315.

As to GGGGGCCACAGCAGAAGCGUUCACGUCGCGGCCCCUGUUAGAUACUGGUGAAUCUGCGAAUUCUGCUGU [C39U U44A], the self-cleavage turned out to be 0.517.

With GGGGGCCACAGCAGAAGCGUUCACGUCGCGGCCCCUGUCCGGUUCUGGUGAAUCUGCGAAUUCUGCUGU [A40C A42G], the self-cleavage was determined as 0.482.

For the variant GGGGGCCACAGCAGAAGCGUUCACGUCGCGGCCCCUGUCCGUUUCUGGUGAAUCUGCGAAUUCUGCUGU [A40C A42U], the self-cleavage was determined as 0.363.

Consider GGGGGCCACAGCAGAAGCGUUCACGUCGCGGCCCCUGUCCGCUUCUGGUGAAUCUGCGAAUUCUGCUGU [A40C A42C], for which the self-cleavage was 0.26.

Consider GGGGGCCACAGCAGAAGCGUUCACGUCGCGGCCCCUGUCCGAUUCUGGUUAAUCUGCGAAUUCUGCUGU [A40C G50U], for which the self-cleavage came to 0.55.

On to GGGGGCCACAGCAGAAGCGUUCACGUCGCGGCCCCUGUUAGAUUCUGGUGAAUCUGCGAACUCUGCUGU [C39U U61C], for which the self-cleavage was 0.435.

For the variant GGGGGCCACAGCAGAAGCGUUCACGUCGCGGCCCCUGUUAGAUUCUGGUGAAUCUGCGAAAUCUGCUGU [C39U U61A], the self-cleavage amounted to 0.766.

For GGGGGCCACAGCAGAAGCGUUCACGUCGCGGCCCCUGUUAGAUUCUGGUGAAUCUGCUAAUUCUGCUGU [C39U G58U], the self-cleavage turned out to be 0.961.

As for GGGGGCCACAGCAGAAGCGUUCACGUCGCGGCCCCUGUUAGAUUCUGGUGAAUCUGCAAAUUCUGCUGU [C39U G58A], the self-cleavage is 0.873.

As for GGGGGCCACAGCAGAAGCGUUCACGUCGCGGCCCCUGUUAGAUUCUGGUGAAUCUGCCAAUUCUGCUGU [C39U G58C], the self-cleavage came to 0.946.

On to GGGGGCCACAGCAGAAGCGUUCACGUCGCGGCCCCUGUUAUAUUCUGGUGAAUCUGCGAAUUCUGCUGU [C39U G41U], for which the self-cleavage came to 0.337.

Turning to GGGGGCCACAGCAGAAGCGUUCACGUCGCGGCCCCUGUUAAAUUCUGGUGAAUCUGCGAAUUCUGCUGU [C39U G41A], the self-cleavage is 0.475.

Consider GGGGGCCACAGCAGAAGCGUUCACGUCGCGGCCCCUGUUAGAUUCUGGUGAAUCUACGAAUUCUGCUGU [C39U G56A], for which the self-cleavage is 1.

For the variant GGGGGCCACAGCAGAAGCGUUCACGUCGCGGCCCCUGUUAGAUUCUGGUGAAUCUCCGAAUUCUGCUGU [C39U G56C], the self-cleavage amounted to 0.887.

Turning to GGGGGCCACAGCAGAAGCGUUCACGUCGCGGCCCCUGUUAGAUUCUGGUGAAUCUGCGAAUACUGCUGU [C39U U62A], the self-cleavage stood at 0.702.

As to GGGGGCCACAGCAGAAGCGUUCACGUCGCGGCCCCUGUUAGAUUCUGGUGAAUCUGCGAAUCCUGCUGU [C39U U62C], the self-cleavage turned out to be 0.514.

For the variant GGGGGCCACAGCAGAAGCGUUCACGUCGCGGCCCCUGUUAGAUUCUGGUGAAUCUGCGAAUGCUGCUGU [C39U U62G], the self-cleavage came out at 0.622.

Regarding GGGGGCCACAGCAGAAGCGUUCACGUCGCGGCCCCUGUUAGAUUCCGGUGAAUCUGCGAAUUCUGCUGU [C39U U46C], the self-cleavage worked out at 0.822.

Consider GGGGGCCACAGCAGAAGCGUUCACGUCGCGGCCCCUGUUAGAUUCGGGUGAAUCUGCGAAUUCUGCUGU [C39U U46G], for which the self-cleavage amounted to 0.997.

Turning to GGGGGCCACAGCAGAAGCGUUCACGUCGCGGCCCCUGUUAGAUUCUGGUGAAUUUGCGAAUUCUGCUGU [C39U C54U], the self-cleavage worked out at 0.853.

Turning to GGGGGCCACAGCAGAAGCGUUCACGUCGCGGCCCCUGUUAGAUUCUGGUGAAUGUGCGAAUUCUGCUGU [C39U C54G], the self-cleavage stood at 0.546.

For the variant GGGGGCCACAGCAGAAGCGUUCACGUCGCGGCCCCUGUUAGAUUCUGGUGAAUAUGCGAAUUCUGCUGU [C39U C54A], the self-cleavage is 0.526.
